Endothelial cell migration (scratch-wound closure) in the presence of 15µg/ml RDD protein, as compared to untreated control culture data for one substance are collected here from EP2353607A1.

The target of experiment [1] is integrin α5β1 on cultured endothelial cells (species of the cells not stated). Description: cell-based or functional assay.
For experiment [2], the target named is integrin αvβ3 on cultured endothelial cells (species of the cells not stated). Description: cell-based or functional assay.

For the substance “recombinant disintegrin domain (RDD) of metargidin (human ADAM-15)”, the endothelial cell migration (scratch-wound closure) in the presence of 15µg/ml RDD protein, as compared to untreated control culture in experiment [1] and in experiment [2] was 54.5% each time.
